Results taken from ChEMBL document CHEMBL2073879, “Human monocarboxylate transporter 2 (MCT2) is a high affinity pyruvate transporter” (J Biol Chem, 1998).

Legend:
[1] = substrate: CC(=O)C(=O)O; experiment: (§1) TP_TRANSPORTER: uptake in Xenopus laevis oocytes; format: functional, cell-based; conditions: Oocyte
[2] = substrate: CC(O)C(=O)[O-].[Na+]; experiment: as §1; format: functional, cell-based; conditions: Oocyte

| Protein | Km [1] [mM] | Km [2] [mM] |
| --- | --- | --- |
| Monocarboxylate transporter 2 (Homo sapiens), O60669 (protein) MPPMPSAPPVHPPPDGGWGWIVVGAAFISIGFSYAFPKAVTVFFKEIQQIFHTTYSEIAWISSIMLAVMYAGGPVSSVLVNKYGSRPVVIAGGLLCCLGMVLASFSSSVVQLYLTMGFITGLGLAFNLQPALTIIGKYFYRKRPMANGLAMAGSPVFLSSLAPFNQYLFNTFGWKGSFLILGSLLLNACVAGSLMRPLGPNQTTSKSKNKTGKTEDDSSPKKIKTKKSTWEKVNKYLDFSLFKHRGFLIYLSGNVIMFLGFFAPIIFLAPYAKDQGIDEYSAAFLLSVMAFVDMFARPSVGLIANSKYIRPRIQYFFSFAIMFNGVCHLLCPLAQDYTSLVLYAVFFGLGFGSVSSVLFETLMDLVGAPRFSSAVGLVTIVECGPVLLGPPLAGKLVDLTGEYKYMYMSCGAIVVAASVWLLIGNAINYRLLAKERKEENARQKTRESEPLSKSKHSEDVNVKVSNAQSVTSERETNI | 0.025 | 6.5 |
| Monocarboxylate transporter 1 (Rattus norvegicus), P53987 (protein) MPPAIGGPVGYTPPDGGWGWAVVVGAFISIGFSYAFPKSITVFFKEIEIIFSATTSEVSWISSIMLAVMYAGGPISSILVNKYGSRPVMIAGGCLSGCGLIAASFCNTVQELYFCIGVIGGLGLAFNLNPALTMIGKYFYKKRPLANGLAMAGSPVFLSTLAPLNQAFFGIFGWRGSFLILGGLLLNCCVAGSLMRPIGPQQGKVEKLKSKESLQEAGKSDANTDLIGGSPKGEKLSVFQTVNKFLDLSLFTHRGFLLYLSGNVVMFFGLFTPLVFLSNYGKSKHFSSEKSAFLLSILAFVDMVARPSMGLAANTRWIRPRVQYFFAASVVANGVCHLLAPLSTTYVGFCIYAGVFGFAFGWLSSVLFETLMDLVGPQRFSSAVGLVTIVECCPVLLGPPLLGRLNDMYGDYKYTYWACGVILIIAGLYLFIGMGINYRLVAKEQKAEEKKRDGKEDETSTDVDEKPKKTMKETQSPAPLQNSSGDPAEEESPV | 2.5 | 6 |
